Test results as given in paper PMC9052802.

Biological target: RopC-U (thiazoline-containing product of the reaction of RopC with MicD-F) (UniProt P03051)
Test: SEC

## RopC-U (thiazoline-containing product of the reaction of RopC with MicD-F) (from UniProt P03051 1-63) (natural protein)
  stoichiometry N: 2
